Consider three molecules from patent US20260273029A1, “DRY EYE TREATMENT” (Inoculus Ventures, LLC, priority 2022, published 2026).

The test system of assay [1] is S. Aureus biofilms. Conditions: existing data; cited from earlier work.
Assay [2] concerns S. Aureus biofilms. Nature of the assay: Preliminary assessment of amylases on biofilms: reduction of existing biofilm. It counts as cell-based. Conditions: for Reduces Biofilm: Table 1, preliminary assessment of activity on Biofilms. The text has this: (§1) Non-limiting examples of amylases contemplated by the disclosure and their preliminary assessment of their activity on Biofilms is listed on Table 1: […]

The test system of assay [3] is S. Aureus biofilms. Put plainly: Preliminary assessment of amylases on biofilms: prohibition of biofilm growth. In kind it is cell-based. Particulars: Table 1, preliminary assessment of activity on Biofilms.
Excerpt: as §1

B1: α-Amylase from human saliva: α-amylase from human saliva (Sigma, catalog #A1031) (protein, UniProt P0DUB6 16-511, looked up)
Alpha-amylase 1A: QYSSNTQQGRTSIVHLFEWRWVDIALECERYLAPKGFGGVQVSPPNENVAIHNPFRPWWERYQPVSYKLCTRSGNEDEFRNMVTRCNNVGVRIYVDAVINHMCGNAVSAGTSSTCGSYFNPGSRDFPAVPYSGWDFNDGKCKTGSGDIENYNDATQVRDCRLSGLLDLALGKDYVRSKIAEYMNHLIDIGVAGFRIDASKHMWPGDIKAILDKLHNLNSNWFPEGSKPFIYQEVIDLGGEPIKSSDYFGNGRVTEFKYGAKLGTVIRKWNGEKMSYLKNWGEGWGFMPSDRALVFVDNHDNQRGHGAGGASILTFWDARLYKMAVGFMLAHPYGFTRVMSSYRWPRYFENGKDVNDWVGPPNDNGVTKEVTINPDTTCGNDWVCEHRWRQIRNMVNFRNVVDGQPFTNWYDNGSNQVAFGRGNRGFIVFNNDDWTFSLTLQTGLPAGTYCDVISGDKINGNCTGIKIYVSDDGKAHFSISNSAEDPFIAIHAESKL
Consider B1, for which the “in-vitro effectiveness at the inhibition and reduction of S. Aureus biofilms” value in the assay with S. Aureus biofilms [1] is reported as “certain in-vitro effectiveness”. Further, in the assay with S. Aureus biofilms [2], the “Reduces Biofilm” value was “No”. Moreover, in the assay with S. Aureus biofilms [3], the “Prohibits Biofilm Growth” value was “Yes”.

B2: β-Amylase from sweet potato: β-Amylase from sweet potato, Sigma Aldrich research grade (protein, UniProt P10537 2-499, looked up)
Beta-amylase: APIPGVMPIGNYVSLYVMLPLGVVNADNVFPDKEKVEDELKQVKAGGCDGVMVDVWWGIIEAKGPKQYDWSAYRELFQLVKKCGLKIQAIMSFHQCGGNVGDAVFIPIPQWILQIGDKNPDIFYTNRAGNRNQEYLSLGVDNQRLFQGRTALEMYRDFMESFRDNMADFLKAGDIVDIEVGCGAAGELRYPSYPETQGWVFPGIGEFQCYDKYMVADWKEAVKQAGNADWEMPGKGAGTYNDTPDKTEFFRPNGTYKTDMGKFFLTWYSNKLIIHGDQVLEEANKVFVGLRVNIAAKVSGIHWWYNHVSHAAELTAGFYNVAGRDGYRPIARMLARHHATLNFTCLEMRDSEQPAEAKSAPQELVQQVLSSGWKEYIDVAGENALPRYDATAYNQMLLNVRPNGVNLNGPPKLKMSGLTYLRLSDDLLQTDNFELFKKFVKKMHADLDPSPNAISPAVLERSNSAITIDELMEATKGSRPFPWYDVTDMPVDGSNPFD
For the molecule B2, the “in-vitro effectiveness at the inhibition and reduction of S. Aureus biofilms” value with S. Aureus biofilms [1] is “certain in-vitro effectiveness”. For the same molecule, the “Reduces Biofilm” value in the assay with S. Aureus biofilms [2] is listed as “No”. Besides, in the assay on S. Aureus biofilms [3], the “Prohibits Biofilm Growth” value was “Partially”.

B3: α-Amylase from Bacillus subtilis: α-amylase from Bacillus subtilis (Sigma, catalog #10070) (protein, UniProt P00691 42-659, looked up)
Alpha-amylase: LTAPSIKSGTILHAWNWSFNTLKHNMKDIHDAGYTAIQTSPINQVKEGNQGDKSMSNWYWLYQPTSYQIGNRYLGTEQEFKEMCAAAEEYGIKVIVDAVINHTTSDYAAISNEVKSIPNWTHGNTQIKNWSDRWDVTQNSLLGLYDWNTQNTQVQSYLKRFLDRALNDGADGFRFDAAKHIELPDDGSYGSQFWPNITNTSAEFQYGEILQDSASRDAAYANYMDVTASNYGHSIRSALKNRNLGVSNISHYASDVSADKLVTWVESHDTYANDDEESTWMSDDDIRLGWAVIASRSGSTPLFFSRPEGGGNGVRFPGKSQIGDRGSALFEDQAITAVNRFHNVMAGQPEELSNPNGNNQIFMNQRGSHGVVLANAGSSSVSINTATKLPDGRYDNKAGAGSFQVNDGKLTGTINARSVAVLYPDDIAKAPHVFLENYKTGVTHSFNDQLTITLRADANTTKAVYQINNGPETAFKDGDQFTIGKGDPFGKTYTIMLKGTNSDGVTRTEKYSFVKRDPASAKTIGYQNPNHWSQVNAYIYKHDGSRVIELTGSWPGKPMTKNADGIYTLTLPADTDTTNAKVIFNNGSAQVPGQNQPGFDYVLNGLYNDSGLSGSLPH
B3: the “in-vitro effectiveness at the inhibition and reduction of S. Aureus biofilms” value with S. Aureus biofilms [1] is on record as “certain in-vitro effectiveness”. Besides, the “Reduces Biofilm, time” value with S. Aureus biofilms [2] (Table 1, reduces biofilm only after this time) is not below 3 h. Besides, in the assay with S. Aureus biofilms [3], the “Prohibits Biofilm Growth” value is “Yes”.
